Experimental data taken from the supplement of paper PMC10126150.
± gives the standard deviation of the averaged measurements.

Test system: ATP
Experiment: switch fluorescence ratio, 500 uM ATP over buffer (Cy3 cluster intensity, sum of 5 cycles each) (fold (ratio)); higher = stronger signal-on switching upon ATP binding; sequences stand for … in TCGTCGGCAGCGTCAGATGTGTATAAGAGACAGTTTTTTTTTTTTTTTTTTTTTTTTT…TC
Conditions: aptamer strand: ATP DNA aptamer (quencher-CACCTGGGGGAGTATTGCGGAGGAAGG + anchor), 100 nM annealed; ATP concentration: 500 uM
Summary of the method: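 Switching-strand clusters labelled with Cy3 on a modified Illumina MiSeq flow-cell were annealed to 100 nM quencher-labelled ATP aptamer, imaged in selection buffer, and re-imaged after 15 min with 500 uM ATP at 22 °C. This was done over five cycles with NaOH stripping and re-annealing in between. The fluorescence ratio is summed target-cycle over summed buffer-cycle Cy3 intensity per cluster, averaged per switch-domain sequence, excluding clusters outside 100-1000 RFU.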
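Also: ATP exposure 15 min at 22 °C before imaging.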

CACGGCCGGA
switch fluorescence ratio: 1.03 ± 0.052

CACGGCTATG
switch fluorescence ratio: 1.06 ± 0.046

CACGGGGGAA
switch fluorescence ratio: 1.03 ± 0.029

CACGGTGGCT
switch fluorescence ratio: 1.01 ± 0.03

CACGGTGGGT
switch fluorescence ratio: 0.9898 ± 0.0079

CACGGTTTGC
switch fluorescence ratio: 1.01 ± 0.021

CACGTAAAAA
switch fluorescence ratio: 1.16 ± 0.19

CACGTATTGG
switch fluorescence ratio: 1.11 ± 0.017

CACGTGGGCA
switch fluorescence ratio: 1.01 ± 0.048

CACGTTGAAC
switch fluorescence ratio: 1.11 ± 0.034

CACTAAGGGA
switch fluorescence ratio: 0.996 ± 0.014

CACTAATTTT
switch fluorescence ratio: 1.03 ± 0.019

CACTAGAACC
switch fluorescence ratio: 1.0319 ± 8.9e-05

CACTCGTGGC
switch fluorescence ratio: 1.01 ± 0.053

CACTCTACGA
switch fluorescence ratio: 1.41 ± 0.073

CACTGCTTTT
switch fluorescence ratio: 0.992 ± 0.023

CACTGGAGAG
switch fluorescence ratio: 1.039 ± 0.0048

CACTGGCGAT
switch fluorescence ratio: 1.06 ± 0.054

CACTGGTTAA
switch fluorescence ratio: 0.995 ± 0.013

CACTGTCGAT
switch fluorescence ratio: 1.016 ± 0.0097

CACTTAAAAG
switch fluorescence ratio: 1.05 ± 0.13

CACTTAACAG
switch fluorescence ratio: 1.1 ± 0.017

CACTTAGGGC
switch fluorescence ratio: 1.06 ± 0.024

CACTTCATTT
switch fluorescence ratio: 1.01 ± 0.013

CACTTGCAGA
switch fluorescence ratio: 0.999 ± 0.013

CACTTGGTCG
switch fluorescence ratio: 1 ± 0.068

CACTTTCGT
switch fluorescence ratio: 0.959 ± 0.029

CACTTTTTGG
switch fluorescence ratio: 0.999 ± 0.003

CAGAAAAAAT
switch fluorescence ratio: 0.978 ± 0.038

CAGAAGGGGG
switch fluorescence ratio: 1.11 ± 0.16

CAGAAGGGTT
switch fluorescence ratio: 0.997 ± 0.038

CAGAATCAAC
switch fluorescence ratio: 1.05 ± 0.014

CAGAGATCTG
switch fluorescence ratio: 0.9732 ± 0.0053

CAGAGCCAAC
switch fluorescence ratio: 1.11 ± 0.016

CAGAGCTTTT
switch fluorescence ratio: 1.05 ± 0.058

CAGAGGATGC
switch fluorescence ratio: 0.995 ± 0.0041

CAGAGGGGTG
switch fluorescence ratio: 1.05 ± 0.012

CAGAGTAACA
switch fluorescence ratio: 0.973 ± 0.03

CAGAGTGGCA
switch fluorescence ratio: 1.02 ± 0.027

CAGATAGAAG
switch fluorescence ratio: 0.999 ± 0.012

CAGATAGACG
switch fluorescence ratio: 1.04 ± 0.036

CAGATAGCAG
switch fluorescence ratio: 1.093 ± 0.0021

CAGATATGGC
switch fluorescence ratio: 1.05 ± 0.034

CAGATCTGTA
switch fluorescence ratio: 1.0087 ± 0.00071

CAGATGAGGG
switch fluorescence ratio: 1.005 ± 0.0057

CAGATGGACG
switch fluorescence ratio: 0.968 ± 0.032

CAGATGGGGT
switch fluorescence ratio: 0.9839 ± 0.001

CAGATGGTCG
switch fluorescence ratio: 0.938 ± 0.057

CAGATGTGTT
switch fluorescence ratio: 0.9728 ± 0.0031

CAGCAAAAAG
switch fluorescence ratio: 0.985 ± 0.025

CAGCAACATG
switch fluorescence ratio: 1.04 ± 0.024

CAGCAGGCGG
switch fluorescence ratio: 1.01 ± 0.024

CAGCAGGCGT
switch fluorescence ratio: 1.03 ± 0.021

CAGCAGGGGC
switch fluorescence ratio: 1.11 ± 0.024

CAGCATCCTT
switch fluorescence ratio: 1.02 ± 0.043

CAGCATGTTT
switch fluorescence ratio: 0.988 ± 0.024

CAGCCAAAT
switch fluorescence ratio: 1.043 ± 0.01

CAGCCGACCG
switch fluorescence ratio: 1.163 ± 0.0088

CAGCCGGGTG
switch fluorescence ratio: 1.3412 ± 0.0003

CAGCCTTGTG
switch fluorescence ratio: 1.013 ± 0.0079

CAGCGAGGGG
switch fluorescence ratio: 1.21 ± 0.32

CAGCGAGTCC
switch fluorescence ratio: 1.067 ± 0.0012

CAGCGAGTGG
switch fluorescence ratio: 1 ± 0.036

CAGCGCTGGA
switch fluorescence ratio: 0.996 ± 0.033

CAGCGGACCG
switch fluorescence ratio: 1.02 ± 0.028

CAGCGTAGGT
switch fluorescence ratio: 1.02 ± 0.043

CAGCTACTTG
switch fluorescence ratio: 1.05 ± 0.025

CAGCTAGATA
switch fluorescence ratio: 0.9987 ± 0.0065

CAGCTAGCGG
switch fluorescence ratio: 0.97 ± 0.025

CAGCTAGGTT
switch fluorescence ratio: 1.31 ± 0.39

CAGCTAGTCC
switch fluorescence ratio: 1.176 ± 0.0035

CAGCTAGTGT
switch fluorescence ratio: 0.984 ± 0.028

CAGCTATTTA
switch fluorescence ratio: 1.02 ± 0.025

CAGCTTTTCA
switch fluorescence ratio: 1.024 ± 0.006

CAGGAACGAG
switch fluorescence ratio: 1.004 ± 0.0035

CAGGAAGCAG
switch fluorescence ratio: 1.05 ± 0.09

CAGGAATACT
switch fluorescence ratio: 3.61 ± 3

CAGGACGGGG
switch fluorescence ratio: 1.01 ± 0.038

CAGGACTATT
switch fluorescence ratio: 0.995 ± 0.021

CAGGACTGTT
switch fluorescence ratio: 1.02 ± 0.011

CAGGACTTAT
switch fluorescence ratio: 1.02 ± 0.064

CAGGAGAGCG
switch fluorescence ratio: 0.9934 ± 0.0077

CAGGAGGACT
switch fluorescence ratio: 1.02 ± 0.015

CAGGAGGATC
switch fluorescence ratio: 1.027 ± 0.0074

CAGGAGGGGG
switch fluorescence ratio: 0.992 ± 0.053

CAGGAGTCGT
switch fluorescence ratio: 1 ± 0.038

CAGGATATAT
switch fluorescence ratio: 1.01 ± 0.027

CAGGATCTAG
switch fluorescence ratio: 1 ± 0.024

CAGGATGCGT
switch fluorescence ratio: 0.9611 ± 0.0076

CAGGATTGGC
switch fluorescence ratio: 1.07 ± 0.019

CAGGCGTGTG
switch fluorescence ratio: 0.995 ± 0.011

CAGGCTACCT
switch fluorescence ratio: 1.2 ± 0.092

CAGGCTATTG
switch fluorescence ratio: 0.988 ± 0.023

CAGGGAAAAT
switch fluorescence ratio: 0.982 ± 0.012

CAGGGAAGG
switch fluorescence ratio: 0.995 ± 0.016

CAGGGACGGG
switch fluorescence ratio: 1.03 ± 0.018

CAGGGCGC
switch fluorescence ratio: 1.02 ± 0.088

CAGGGCGGAA
switch fluorescence ratio: 1.02 ± 0.019

CAGGGCGGGA
switch fluorescence ratio: 0.936 ± 0.028

CAGGGCGTGG
switch fluorescence ratio: 0.948 ± 0.038

CAGGGCGTTC
switch fluorescence ratio: 0.9856 ± 0.0044

CAGGGGAAAG
switch fluorescence ratio: 1.01 ± 0.033

CAGGGGAATG
switch fluorescence ratio: 0.994 ± 0.021

CAGGGGAGCA
switch fluorescence ratio: 1.02 ± 0.039

CAGGGGATGC
switch fluorescence ratio: 0.987 ± 0.067

CAGGGGCACG
switch fluorescence ratio: 1.06 ± 0.04

CAGGGGCTGG
switch fluorescence ratio: 1.05 ± 0.03

CAGGGGGACG
switch fluorescence ratio: 0.923 ± 0.063

CAGGGGGAGG
switch fluorescence ratio: 1.03 ± 0.048

CAGGGGGCAC
switch fluorescence ratio: 1.05 ± 0.042

CAGGGGGGCC
switch fluorescence ratio: 1.03 ± 0.02

CAGGGGGTTA
switch fluorescence ratio: 1.02 ± 0.026

CAGGGGGTTT
switch fluorescence ratio: 1.01 ± 0.044

CAGGGGTGCT
switch fluorescence ratio: 1.03 ± 0.03

CAGGGTACGG
switch fluorescence ratio: 1.01 ± 0.052

CAGGGTGAAC
switch fluorescence ratio: 1.02 ± 0.019

CAGGGTGCAT
switch fluorescence ratio: 1.02 ± 0.051

CAGGGTGCTG
switch fluorescence ratio: 0.973 ± 0.033

CAGGGTGTGC
switch fluorescence ratio: 1.012 ± 0.00054

CAGGGTTGAG
switch fluorescence ratio: 0.997 ± 0.014

CAGGGTTGCC
switch fluorescence ratio: 0.996 ± 0.018

CAGGGTTTTT
switch fluorescence ratio: 0.999 ± 0.017

CAGGTAAGAG
switch fluorescence ratio: 0.987 ± 0.013

CAGGTACGGG
switch fluorescence ratio: 1.02 ± 0.025

CAGGTAGTGC
switch fluorescence ratio: 1.04 ± 0.096

CAGGTCACTG
switch fluorescence ratio: 0.965 ± 0.044

CAGGTCATGC
switch fluorescence ratio: 1.02 ± 0.058

CAGGTCGTTT
switch fluorescence ratio: 1.032 ± 0.0069

CAGGTCTTAA
switch fluorescence ratio: 0.9719 ± 0.0054

CAGGTGACGC
switch fluorescence ratio: 1.07 ± 0.014

CAGGTGGGGC
switch fluorescence ratio: 1.02 ± 0.035

CAGGTGGGTC
switch fluorescence ratio: 1.02 ± 0.018

CAGGTTAATG
switch fluorescence ratio: 1.0027 ± 0.00049

CAGGTTGATG
switch fluorescence ratio: 1.01 ± 0.032

CAGGTTGCCT
switch fluorescence ratio: 0.999 ± 0.046

CAGGTTGGGG
switch fluorescence ratio: 1.03 ± 0.054

CAGGTTGTGG
switch fluorescence ratio: 0.992 ± 0.024

CAGGTTTTTT
switch fluorescence ratio: 0.989 ± 0.019

CAGTAATATT
switch fluorescence ratio: 1.06 ± 0.017

CAGTAGAGGG
switch fluorescence ratio: 0.977 ± 0.028

CAGTAGCGG
switch fluorescence ratio: 1.14 ± 0.018

CAGTAGGGTC
switch fluorescence ratio: 0.997 ± 0.014

CAGTAGGTCT
switch fluorescence ratio: 1.01 ± 0.027

CAGTAGTTTT
switch fluorescence ratio: 1 ± 0.017

CAGTATATTG
switch fluorescence ratio: 0.995 ± 0.025

CAGTATTTCC
switch fluorescence ratio: 1.05 ± 0.043

CAGTCAGGGC
switch fluorescence ratio: 1.26 ± 0.21

CAGTCATATT
switch fluorescence ratio: 1.02 ± 0.034

CAGTCGAGTT
switch fluorescence ratio: 1.003 ± 0.0076

CAGTCGGTCA
switch fluorescence ratio: 1.01 ± 0.032

CAGTCGGTGG
switch fluorescence ratio: 1 ± 0.031

CAGTCGTGGA
switch fluorescence ratio: 0.969 ± 0.016

CAGTCTATCA
switch fluorescence ratio: 0.972 ± 0.029

CAGTCTATCG
switch fluorescence ratio: 1.01 ± 0.021

CAGTCTGCAG
switch fluorescence ratio: 0.991 ± 0.031

CAGTCTGGTG
switch fluorescence ratio: 1.01 ± 0.025

CAGTGAATGA
switch fluorescence ratio: 1.03 ± 0.017
